Assays:
[1] = target: human LILRB2 expressed on cells (human) (UniProt Q8N423); assay: flow cytometry, human whole blood, monocytes
[2] = target: Cyno Monocytes / Cyno Neutrophils (Macaca fascicularis); assay: flow cytometry, cyno whole blood, neutrophils
[3] = target: Rhesus Monocytes / Rhesus Neutrophils (Macaca mulatta); assay: flow cytometry, rhesus whole blood, monocytes
[4] = target: human LILRA1 (human) (UniProt O75019); assay: flow cytometry, LILRA1 CHOs
[5] = target: Cyno Monocytes / Cyno Neutrophils (Macaca fascicularis); assay: flow cytometry, cyno whole blood, monocytes
[6] = target: Rhesus Monocytes / Rhesus Neutrophils (Macaca mulatta); assay: flow cytometry, rhesus whole blood, neutrophils
[7] = target: human LILRB2 expressed on cells (human) (UniProt Q8N423); assay: flow cytometry, human whole blood, neutrophils
[8] = target: human LILRA4 (human) (UniProt P59901); assay: flow cytometry, LILRA4 CHOs
Sequence of human LILRA4 (human) (P59901 other isoform, or with tags, fused parts or gaps limits assumed): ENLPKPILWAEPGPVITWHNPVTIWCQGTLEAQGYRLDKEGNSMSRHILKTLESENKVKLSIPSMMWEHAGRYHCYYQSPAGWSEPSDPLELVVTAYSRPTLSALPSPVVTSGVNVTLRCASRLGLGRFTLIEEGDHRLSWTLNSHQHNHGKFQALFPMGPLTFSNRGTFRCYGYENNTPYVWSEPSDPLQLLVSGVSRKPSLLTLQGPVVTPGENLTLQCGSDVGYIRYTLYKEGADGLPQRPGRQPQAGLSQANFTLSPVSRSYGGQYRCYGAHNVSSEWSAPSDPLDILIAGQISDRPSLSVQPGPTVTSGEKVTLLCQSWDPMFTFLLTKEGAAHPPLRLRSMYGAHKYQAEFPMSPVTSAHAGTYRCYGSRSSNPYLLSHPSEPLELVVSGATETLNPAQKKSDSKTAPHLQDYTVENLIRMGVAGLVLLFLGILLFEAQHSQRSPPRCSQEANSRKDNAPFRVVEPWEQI

Sequence of human LILRB2 expressed on cells (human) (Q8N423 other isoform, or with tags, fused parts or gaps limits assumed): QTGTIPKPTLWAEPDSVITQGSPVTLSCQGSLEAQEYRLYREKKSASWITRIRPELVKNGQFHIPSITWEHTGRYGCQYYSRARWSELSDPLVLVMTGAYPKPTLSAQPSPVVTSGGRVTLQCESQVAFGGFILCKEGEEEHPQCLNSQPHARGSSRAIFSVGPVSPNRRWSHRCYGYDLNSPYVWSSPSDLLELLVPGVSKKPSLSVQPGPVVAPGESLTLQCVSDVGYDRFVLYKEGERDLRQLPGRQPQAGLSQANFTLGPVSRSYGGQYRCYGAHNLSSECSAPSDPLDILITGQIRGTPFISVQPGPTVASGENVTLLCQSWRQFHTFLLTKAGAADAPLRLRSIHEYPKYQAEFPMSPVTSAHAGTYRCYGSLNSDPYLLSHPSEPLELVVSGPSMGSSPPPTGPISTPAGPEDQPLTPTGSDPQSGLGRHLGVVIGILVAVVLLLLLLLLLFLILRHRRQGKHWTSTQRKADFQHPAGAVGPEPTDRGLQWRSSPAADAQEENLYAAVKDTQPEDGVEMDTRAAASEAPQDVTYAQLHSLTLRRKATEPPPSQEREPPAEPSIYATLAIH
Sequence of human LILRA1 (human) (O75019 17-489 limits assumed): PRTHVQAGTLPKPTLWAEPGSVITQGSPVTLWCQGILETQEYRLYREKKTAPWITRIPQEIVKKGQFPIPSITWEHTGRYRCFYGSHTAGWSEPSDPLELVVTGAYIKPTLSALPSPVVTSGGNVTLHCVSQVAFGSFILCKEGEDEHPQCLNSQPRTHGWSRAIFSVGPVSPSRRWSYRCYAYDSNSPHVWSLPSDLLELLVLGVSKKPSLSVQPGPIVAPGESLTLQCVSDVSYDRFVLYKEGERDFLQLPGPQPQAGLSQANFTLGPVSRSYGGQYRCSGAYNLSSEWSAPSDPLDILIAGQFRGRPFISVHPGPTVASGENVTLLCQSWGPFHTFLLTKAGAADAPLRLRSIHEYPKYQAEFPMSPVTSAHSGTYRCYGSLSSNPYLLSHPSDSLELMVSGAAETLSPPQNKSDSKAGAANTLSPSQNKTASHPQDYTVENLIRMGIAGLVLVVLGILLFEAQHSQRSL

Human Monocytes binding (fold over iso) (fold over iso) [1]: 1
Cyno Neutrophils binding (fold over iso) (fold over iso) [2]: 1
Rhesus Monocytes binding (fold over iso) (fold over iso) [3]: 1
binding (fold over iso) (fold over iso) [4]: 1
Cyno Monocytes binding (fold over iso) (fold over iso) [5]: 1
Rhesus Neutrophils binding (fold over iso) (fold over iso) [6]: 1
Human Neutrophils binding (fold over iso) (fold over iso) [7]: 1
binding (fold over iso) (fold over iso) [8]: 1
Substance: isotype control mAb (antibody)

Reference: patent US20200339690A1
